The values below come from patent US12649778.

Where “and” joins values, the source holds several entries; their conditions need not be identical. Equal values may be shown once. Read-outs that look alike come from different tables or passages of the source.

For test [1], the target named is Peptide 1593 (…) (Mycobacterium tuberculosis).
The target is the same in test [2]. In words: ELISA, Fab supernatant on coated peptide. In general terms: In an ELISA, binding on a coated surface is turned into a signal by an enzyme label.
The target is the same in test [3]. In words: SPR (Biacore), IgG amine-coupled, peptide as analyte. In general terms: SPR reads the build-up and loss of mass on a sensor chip optically.
Test [4] has the same target. This is another data set of the same source.

B1: chimeric Fab antibody of 65D3 (wild type) (Fab, V domains shown)
VH: QSLEESGGRLVTPGGSLTLTCTVSGFSLSTHDISWVRQAPGKGLEWIGVIARRGSTYYASWAKGRFTISKTSTTVDLKITSPTIEDTATYFCAREEFDFWGQGTLVTVSS
VL: AVLTQTASPVSAAVGGTVTISCQSSQSVYNNKELSWFQQKPGQPPKLLISYASTLASGVPSRFKGSGSGTQFTLTISDLECDDAATYYCLGGYASTIDMWAFGGGTEVVVK
B1: in test [1], the OD450 nm (single well) is 0.879 and 0.794. Also, in test [2], the OD450 at 0.00390625 ug/ml coated antigen was 0.133 OD450 and 0.147 OD450; the OD450 at 0.0078125 ug/ml coated antigen was 0.319 OD450 and 0.341 OD450; the OD450 at 0.00953125 ug/ml coated antigen (so in the source) stood at 0.084 OD450; the OD450 at 0.015625 ug/ml coated antigen is 0.73 OD450 and 0.789 OD450. For the same molecule, in test [2], the OD450 at 0.03125 ug/ml coated antigen was 1.21 OD450 and 1.37 OD450; the OD450 at 0.0625 ug/ml coated antigen was 1.71 OD450 and 1.8 OD450; the OD450 at 0.125 ug/ml coated antigen is 1.94 OD450 and 2.04 OD450; the OD450 at 0.25 ug/ml coated antigen was 2.18 OD450 and 2.23 OD450. Besides, in test [2], the OD450 at 0.5 ug/ml coated antigen is 2.27 OD450 and 2.25 OD450; the OD450 at 1 ug/ml coated antigen is 2.3 OD450 and 2.31 OD450.

B2: 65D3 mutant IgG variant 3 (S55W-VH + VL) (antibody)
heavy: QSLEESGGRLVTPGGSLTLTCTVSGFSLSTHDISWVRQAPGKGLEWIGVIARRGWTYYASWAKGRFTISKTSTTVDLKITSPTIEDTATYFCAREEFDFWGQGTLVTVSSGQPKAPSVFPLAPCCGDTPSSTVTLGCLVKGYLPEPVTVTWNSGTLTNGVRTFPSVRQSSGLYSLSSVVSVTSSSQPVTCNVAHPATNTKVDKTVAPSTCSKPTCPPPELLGGPSVFIFPPKPKDTLMISRTPEVTCVVVDVSQDDPEVQFTWYINNEQVRTARPPLREQQFNSTIRVVSTLPIAHQDWLRGKEFKCKVHNKALPAPIEKTISKARGQPLEPKVYTMGPPREELSSRSVSLTCMINGFYPSDISVEWEKNGKAEDNYKTTPAVLDSDGSYFLYSKLSVPTSEWQRGDVFTCSVMHEALHNHYTQKSISRSPGK
VL: AVLTQTASPVSAAVGGTVTISCQSSQSVYNNKELSWFQQKPGQPPKLLISYASTLASGVPSRFKGSGSGTQFTLTISDLECDDAATYYCLGGYASTIDMWAFGGGTEVVVK
For orientation: Kd means a measure of binding affinity in units of concentration. A low value points to higher affinity. A word on the koff: it is a measure of how fast the partners let go of each other. A higher koff goes with a short-lived complex. What is called kon is the second-order rate constant of association. High values mean faster complex formation, low ones slower complex formation. In test [3], B2 registered a Kd of 2.03 nM, a koff of 0.00026 s⁻¹ and a kon of 128000 M⁻¹ s⁻¹.

B3: 65D3 mutant IgG variant 1 (S55W&G64K-VH + S57T-VL) (antibody)
heavy: QSLEESGGRLVTPGGSLTLTCTVSGFSLSTHDISWVRQAPGKGLEWIGVIARRGWTYYASWAKKRFTISKTSTTVDLKITSPTIEDTATYFCAREEFDFWGQGTLVTVSSGQPKAPSVFPLAPCCGDTPSSTVTLGCLVKGYLPEPVTVTWNSGTLTNGVRTFPSVRQSSGLYSLSSVVSVTSSSQPVTCNVAHPATNTKVDKTVAPSTCSKPTCPPPELLGGPSVFIFPPKPKDTLMISRTPEVTCVVVDVSQDDPEVQFTWYINNEQVRTARPPLREQQFNSTIRVVSTLPIAHQDWLRGKEFKCKVHNKALPAPIEKTISKARGQPLEPKVYTMGPPREELSSRSVSLTCMINGFYPSDISVEWEKNGKAEDNYKTTPAVLDSDGSYFLYSKLSVPTSEWQRGDVFTCSVMHEALHNHYTQKSISRSPGK
light: AVLTQTASPVSAAVGGTVTISCQSSQSVYNNKELSWFQQKPGQPPKLLISYASTLATGVPSRFKGSGSGTQFTLTISDLECDDAATYYCLGGYASTIDMWAFGGGTEVVVKGDPVAPTVLIFPPAADQVATGTVTIVCVANKYFPDVTVTWEVDGTTQTTGIENSKTPQNSADCTYNLSSTLTLTSTQYNSHKEYTCKVTQGTTSVVQSFNRGDC
In test [4], B3 gave a Kd of 2.7 nM. Moreover, in test [3], the Kd stood at 2.6 nM, the koff was 0.00027 s⁻¹ and the kon came out at 104000 M⁻¹ s⁻¹.
